Substitutions are numbered along the chain they refer to. Non-standard residues stand in square brackets, D forms with d. No end group written: not given here. *: point of attachment. ARS‑1620 (S-atropisomer) = O=C(CC*)N1CCN(c2ncnc3c(F)c(-c4c(O)cccc4F)c(Cl)cc23)CC1; Nle = CCCC[C@H](N)C(=O)O
T1: PolyG-1620 peptide (S-atropisomer) (not fully specified (N-terminus); printed as GGC(1620)GGGGGG-Nle)
T1 construct: Control peptide, not of natural origin
T1 peptide: GGC(ARS‑1620 (S-atropisomer))GGGGGG[Nle]

T2: AHR2-1620 peptide
T2 construct: Origin printed as 'off target'
T2 peptide: VVVEPQQQLC(ARS‑1620 (S-atropisomer))QK

B1: P1A4 Fab (Fab, V domains shown)
VH: QVQLQESGGGLVQPGRSLRLSCAASGFTFSSYAMHWVRQAPGKGLEWVAVISYDGSNKYYADSVKGRFTISRDNSKNTLYLQMNSLRAEDTAVYYCARDYDWQYFDYWGQGTLVTVSS
VL: QSVVTQPPSVSAAPGQEVTISCSGSSSNIGNNYVSWYQHLPGTAPKLLIYDSDKRPSGIPDRFSGSKSGTSATLGVTGLQTGDEADYYCGTWDSSLSAVMFGGGTKLTVLG
B2: P2G5 Fab (Fab, V domains shown)
VH: QVQLLESGGGVVQPGRSLRLSCAASGFTFSSYAMHWVRQAPGKGLEWLASISYDGSNKFHADSVKGRFTISRDNSKSTLYLQMNSLRAEDTAVYYCVRERVPWDYDGMDVWGQGTTVTVSS
VL: QSVVTQPPSVSAAPGQKVTVSCSGSNSNIGDNYVSWYQLLPGTAPKLLIYDNNKRPSGILDRFSGSKSGTSATLDITGLQTGDEADYYCGTWDSSLLTVVFGGGTKLTVLG
notes: Fab from a human naive Fab-phage library; also called P1C1; P1C1(P2G5)
B3: P2F11 Fab (Fab, V domains shown)
VH: B2 VH with Q1D, L5V, S31N, L48V, S50L
VL: QSVLTQPPSASGTPGQRVTISCSGGNSNIKSNTVSWYRQLPGATPKLLIYKTSQRPSGVPDRFSGSKSDTSATLDIAGLQTGDEADYYCGTWDNSLSSVVFGGGTRVTVLG
notes: Fab from a human naive Fab-phage library
B4: P1H6 Fab (Fab, V domains shown)
VH: B2 VH with L5V
VL: B2 VL with V4L, N26S, D31N, L97I, T98N, L107V, G111S
notes: as for B3
B5: P2F10 Fab (Fab, V domains shown)
VH: EVQLVESGGGVVQPGRSLRLSCAASGFTFSNYAMHWVRQAPGKGLEWVALISYDGSITYYADSVKGRFTISRDNSKDTLYLQMNSLRPEDTTLYYCARERVPYDYYGMAVWGQGTTVTVSS
VL: QSVLTQPPSVSAAPGQKVTISCSGSASNIGSNHVSWYQHVPGTAPQLLIYDDKQRPSGIPDRFSGSKSGTSAALAITGLQTGDEADYYCATWDNSLASAFFGGGTKLTVLS
notes: as for B3

Key:
[1] = target: T1, PolyG-1620 peptide (S-atropisomer); assay: BLI, biotinylated peptide
AHR2-1620 peptide = target: T2, AHR2-1620 peptide; assay: BLI; 'Affinity (nM)'
[2] = target: T1, PolyG-1620 peptide (S-atropisomer); assay: BLI; 'Affinity (nM)'

Binder | Kd [1] [nM] | Kd (AHR2-1620 peptide) [nM] | Kd [2] [nM]
B1 | 39 | 51 | 40
B2 | 85.4 | – | –
B3 | 21.7 | – | –
B4 | 24.6 | – | –
B5 | 14.1 | – | –

Reference: US20220289866A1 (University of California, published 2022)
